Assay results published in patent US20140227188.

Test system: T1, Cathepsin E-activatable 5-ALA prodrug, H-Arg-Gln-Ala-Gly-Phe-Ser-Leu-5-ALA-OH
T1 sequence: RQAGFSL

| Substance | proteolytic cleavage of the prodrug, LC-MS (50 pmol and 100 pmol enzyme) | proteolytic cleavage of the prodrug, fragments identified by LC-MS (50 pmol enzyme) |
| --- | --- | --- |
| Cathepsin B (purified proteolytic enzyme) | A higher concentration of Cath B and D (100 pmol) showed no sign of cleavage of the 5-ALA prodrug at the link between 5-ALA and the rest of the peptide substrate |  |
| Cathepsin D (purified proteolytic enzyme) | A higher concentration of Cath B and D (100 pmol) showed no sign of cleavage of the 5-ALA prodrug at the link between 5-ALA and the rest of the peptide substrate |  |
| Cathepsin E (purified proteolytic enzyme) |  | Cath E was the only tested protease capable of cleaving the 5-ALA prodrug to two major metabolic fragments |
